The source of these data is patent US20080081047A1.

For assay [1], the target named is SARS-HCoV antigen(s) of unknown identity (purified whole virus, infected Vero cell lysate or infected Vero cells). Kind of assay: ELISA, OD on native virus against OD on heat-denatured virus. (In general: ELISA stands for enzyme-linked immunosorbent assay.)
Assay [2] has the same target. Kind of assay: ELISA, virus heated 100 C 10 min, coated at 32 ng/well.
Assay [3] has the same target. Kind of assay: ELISA, native gradient purified virus coated at 32 ng/well.

B1: F26G9 (antibody, V domains shown)
VH: VQLLESGTVLARPGASVKMSCKASGYSFTSYWMHWVKQRPGQGLEWIGAIYPGNSDTSYNQKFKGKAKLTAVTSASTAYMELSSLTNEDSAVYYCTRSVYYGYGYFDVWGAGTTVTVSS
VL: DILMTQSHKCMSTSVGDRVSITCKASQDVSTAVVWYQQKPGQFPKLLIYWASTRHTGVPDRFTGSGSGTDYTLTISSVQAEDLALYYCQQHYTTPYTFGGGTKLEIKR
Regarding B1, in assay [1], the O.D. Reduction, Fold was found to be 4.8 fold and the O.D. Reduction, Percent worked out at 79%. In assay [2], this molecule gave an ELISA OD 405 nm, Denatured Lysate of 0.278 OD 405 nm. The ELISA OD 405 nm, Viral Lysate (native) in assay [3] turned out to be 1.34 OD 405 nm.

B2: F26G10 (antibody, V domains shown)
VH: EVQLEESGTVLARPGASVKMSCKASGYSFTSYWMHWVKQRPGQGLDWIGAIYPENSDTSYNQKFKGKAKLTAVTSASTAYMEHSSLTNEDSAVYYCTRSVYYGYGYFDVWGAGTTVTVSS
VL: DILMTQSHKFMSTSVGDRVSITCKASQDVSTAVAWYQQKPGQSPKLLIYWASTRHTGVPDRFTGSGSGTDYTLTISSVQAEDLALYYCQQHYSTPYTFGGGTKLEIKR
On to B2, for which, in assay [1], the O.D. Reduction, Fold was found to be 4.3 fold and the O.D. Reduction, Percent was 77%. In addition, the ELISA OD 405 nm, Denatured Lysate in assay [2] is 0.29 OD 405 nm. Besides, the ELISA OD 405 nm, Viral Lysate (native) in assay [3] was 1.26 OD 405 nm.

B3: F26G3 (antibody, V domains shown)
VH: EVRLQQSGPELVKPGASVKISCKTSGYTFTEYTMHWVKQSHGKNLEWIGGINPNNGGTTYNQKFKGKATLTVDKSSNTAYMELRSLTSEDSAVYYCSRGDYGTSYGYFDVWGAGTTVTVSS
VL: DILMTQSPTSFAVSLGQRATISCRTSQSVSTSSYSYMHWYQQKPGQPPKLLIKYASNLESGVPARFSGSGSGSDFTLNIHPVEEGDTATYYCQHSWEIPCAFGGGTKLEIKR
In assay [1], B3 gave an O.D. Reduction, Fold of 4.5 fold and an O.D. Reduction, Percent of 78%. In assay [2], this molecule returned an ELISA OD 405 nm, Denatured Lysate of 0.276 OD 405 nm. The ELISA OD 405 nm, Viral Lysate (native) in assay [3] turned out to be 1.25 OD 405 nm.

B4: F26G7 (antibody, V domains shown)
VH: VELLESGTVLARPGASVKMSCEASGYTFTTYWMHWIKQRPGQGLEWIGAIYPGNSDTTYNQKFKGKAKLTAVTSTSTAYMELSSLTNEDSAVYYCTREGIPQLLRTMDYWGQGTSVTVSS
VL: ELVMTQSPSSLSASLGERVSLTCRASQEISGYLSWLQQKPDGTIKRLIYAASTLDSGVPKRFSGSRSGSDYSLTISSLESEDFADYYCLQYISYPWTFGGGTKLEIKR
In assay [1], B4 showed an O.D. Reduction, Fold of 5 fold and an O.D. Reduction, Percent of 80%. The molecule also yielded an ELISA OD 405 nm, Denatured Lysate in assay [2] of 0.382 OD 405 nm. Further, the ELISA OD 405 nm, Viral Lysate (native) in assay [3] is 1.92 OD 405 nm.
